# Test system: Escherichia coli TOP10
# Assay: shrunken log2 fold change of peptide-encoding DNA abundance (4.5 h post-induction vs induction); higher = less antimicrobial activity (less host growth inhibition)
# Details: time post-induction: 4.5 h; library: site-saturation at positions 5, 18, 19, 20
# 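Also: peptides expressed intracellularly from a pBAD plasmid library in pooled LB shake-flask culture, induced with 0.3% L-arabinose, DNA abundance read by NGS, three biological replicates, DESeq2 with apeglm shrinkage.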
row,Sequence,shrunken log2 fold change
1,RRIRQRPPRLPRPRPRPTLVPRP,0.186
2,RRIRCRPPRLPRPRPRPHYMPRP,-0.308
3,RRIRCRPPRLPRPRPRPFIQPRP,-1.04
4,RRIRDRPPRLPRPRPRPKVWPRP,0.437
5,RRIRNRPPRLPRPRPRPLCFPRP,-0.461
6,RRIRKRPPRLPRPRPRPPKSPRP,0.462
7,RRIRYRPPRLPRPRPRPAFQPRP,-0.00804
8,RRIRNRPPRLPRPRPRPQPHPRP,-0.0382
9,RRIRCRPPRLPRPRPRPCQDPRP,-0.178
10,RRIRARPPRLPRPRPRPSAMPRP,0.38
11,RRIRQRPPRLPRPRPRPGGDPRP,0.0869
12,RRIRLRPPRLPRPRPRPLDSPRP,0.0522
13,RRIRYRPPRLPRPRPRPECPPRP,-0.00973
14,RRIRWRPPRLPRPRPRPNMIPRP,-0.114
15,RRIRARPPRLPRPRPRPHQHPRP,-0.109
16,RRIRLRPPRLPRPRPRPYLSPRP,-0.0116
17,RRIRVRPPRLPRPRPRPRMLPRP,-0.103
18,RRIRCRPPRLPRPRPRPDNYPRP,-0.921
19,RRIRPRPPRLPRPRPRPFKSPRP,-0.222
20,RRIRPRPPRLPRPRPRPVCLPRP,0.081
21,RRIRERPPRLPRPRPRPKWVPRP,-0.0367
22,RRIRTRPPRLPRPRPRPMQLPRP,-0.191
23,RRIRWRPPRLPRPRPRPKKTPRP,0.0382
24,RRIRFRPPRLPRPRPRPSATPRP,0.0473
25,RRIRKRPPRLPRPRPRPSMMPRP,0.677

row,Sequence,shrunken log2 fold change
1,RRIRCRPPRLPRPRPRPSARPRP,0.16
2,RRIRVRPPRLPRPRPRPPKYPRP,-0.416
3,RRIRFRPPRLPRPRPRPRFNPRP,-0.196
4,RRIRDRPPRLPRPRPRPPVFPRP,1.59
5,RRIRKRPPRLPRPRPRPMLVPRP,-0.0603
6,RRIRCRPPRLPRPRPRPYVSPRP,-0.207
7,RRIRIRPPRLPRPRPRPCPRPRP,-0.185
8,RRIRYRPPRLPRPRPRPPMSPRP,-0.612
9,RRIRERPPRLPRPRPRPRYYPRP,-0.206
10,RRIRHRPPRLPRPRPRPWFPPRP,-0.379
11,RRIRKRPPRLPRPRPRPNYQPRP,-0.0219
12,RRIRKRPPRLPRPRPRPNGYPRP,0.0664
13,RRIRMRPPRLPRPRPRPWISPRP,0.00707
14,RRIRSRPPRLPRPRPRPPFYPRP,-0.154
15,RRIRDRPPRLPRPRPRPNEPPRP,-0.0233
16,RRIRFRPPRLPRPRPRPAGSPRP,-0.139
17,RRIRERPPRLPRPRPRPEESPRP,0.148
18,RRIRLRPPRLPRPRPRPFRPPRP,0.0752
19,RRIRTRPPRLPRPRPRPYWRPRP,-0.174
20,RRIRRRPPRLPRPRPRPYLHPRP,-0.307
21,RRIRCRPPRLPRPRPRPPHDPRP,1.83
22,RRIRDRPPRLPRPRPRPIVRPRP,-0.00112
23,RRIRARPPRLPRPRPRPVVEPRP,0.322
24,RRIRCRPPRLPRPRPRPSGNPRP,-0.598
25,RRIRMRPPRLPRPRPRPARHPRP,0.974

row,Sequence,shrunken log2 fold change
1,RRIRGRPPRLPRPRPRPSRLPRP,0.204
2,RRIRPRPPRLPRPRPRPRGSPRP,0.285
3,RRIRQRPPRLPRPRPRPPSQPRP,0.0863
4,RRIRTRPPRLPRPRPRPIWTPRP,0.00694
5,RRIRDRPPRLPRPRPRPRMQPRP,-0.196
6,RRIRERPPRLPRPRPRPQMCPRP,0.0746
7,RRIRHRPPRLPRPRPRPVMWPRP,0.21
8,RRIRYRPPRLPRPRPRPNWDPRP,-0.863
9,RRIRYRPPRLPRPRPRPENDPRP,-0.342
10,RRIRMRPPRLPRPRPRPQPRPRP,1.22
11,RRIRNRPPRLPRPRPRPKSNPRP,-0.294
12,RRIRARPPRLPRPRPRPNVFPRP,0.258
13,RRIRTRPPRLPRPRPRPFCQPRP,0.101
14,RRIRMRPPRLPRPRPRPPADPRP,2.99
15,RRIRERPPRLPRPRPRPSAEPRP,0.0172
16,RRIRCRPPRLPRPRPRPKQHPRP,0.189
17,RRIRDRPPRLPRPRPRPYRLPRP,-0.0389
18,RRIRERPPRLPRPRPRPHEVPRP,-0.0812
19,RRIRWRPPRLPRPRPRPRNQPRP,0.145
20,RRIRVRPPRLPRPRPRPLCAPRP,0.17
21,RRIRCRPPRLPRPRPRPLKGPRP,-0.204
22,RRIRLRPPRLPRPRPRPPIRPRP,0.296
23,RRIRSRPPRLPRPRPRPAVKPRP,-0.177
24,RRIRQRPPRLPRPRPRPKDAPRP,0.0166
25,RRIRKRPPRLPRPRPRPLGSPRP,-0.115

row,Sequence,shrunken log2 fold change
1,RRIRNRPPRLPRPRPRPMGVPRP,0.165
2,RRIRARPPRLPRPRPRPEKQPRP,-0.148
3,RRIRDRPPRLPRPRPRPSCFPRP,0.126
4,RRIRHRPPRLPRPRPRPWHAPRP,-0.0793
5,RRIRQRPPRLPRPRPRPGDNPRP,-0.203
6,RRIRRRPPRLPRPRPRPMWKPRP,-0.0119
7,RRIRNRPPRLPRPRPRPSLVPRP,-0.292
8,RRIRLRPPRLPRPRPRPKADPRP,-0.051
9,RRIRARPPRLPRPRPRPGAKPRP,0.623
10,RRIRDRPPRLPRPRPRPHVRPRP,-0.12
11,RRIRNRPPRLPRPRPRPGFVPRP,0.135
12,RRIRPRPPRLPRPRPRPHHHPRP,-0.532
13,RRIRHRPPRLPRPRPRPYFQPRP,-0.935
14,RRIRWRPPRLPRPRPRPSLFPRP,0.114
15,RRIRARPPRLPRPRPRPCWWPRP,0.157
16,RRIRARPPRLPRPRPRPSVQPRP,0.629
17,RRIRYRPPRLPRPRPRPFPYPRP,-0.0356
18,RRIRSRPPRLPRPRPRPVAIPRP,-0.28
19,RRIRIRPPRLPRPRPRPKFHPRP,-0.375
20,RRIRMRPPRLPRPRPRPFSWPRP,0.0956
21,RRIRDRPPRLPRPRPRPCRCPRP,0.0101
22,RRIRWRPPRLPRPRPRPEQMPRP,0.222
23,RRIRHRPPRLPRPRPRPPNVPRP,-0.0106
24,RRIRFRPPRLPRPRPRPRVDPRP,-0.055
25,RRIRHRPPRLPRPRPRPDNWPRP,-0.335

row,Sequence,shrunken log2 fold change
1,RRIRMRPPRLPRPRPRPWLPPRP,-0.0332
2,RRIRYRPPRLPRPRPRPQHFPRP,-0.0787
3,RRIRMRPPRLPRPRPRPRKCPRP,0.0129
4,RRIRGRPPRLPRPRPRPLAHPRP,0.546
5,RRIRIRPPRLPRPRPRPLKKPRP,-0.094
6,RRIRMRPPRLPRPRPRPRNTPRP,0.354
7,RRIRKRPPRLPRPRPRPPYVPRP,0.0388
8,RRIRSRPPRLPRPRPRPENIPRP,-0.278
9,RRIRIRPPRLPRPRPRPVFRPRP,-0.169
10,RRIRWRPPRLPRPRPRPNIDPRP,-0.21
11,RRIRSRPPRLPRPRPRPKGIPRP,-0.357
12,RRIRHRPPRLPRPRPRPMFYPRP,-0.446
13,RRIRKRPPRLPRPRPRPYDGPRP,-0.0976
14,RRIRKRPPRLPRPRPRPPCRPRP,0.264
15,RRIRKRPPRLPRPRPRPYKDPRP,-0.213
16,RRIRIRPPRLPRPRPRPIIEPRP,-0.0807
17,RRIRWRPPRLPRPRPRPPLPPRP,1.07
18,RRIRGRPPRLPRPRPRPWGEPRP,0.285
19,RRIRARPPRLPRPRPRPGFAPRP,0.57
20,RRIRRRPPRLPRPRPRPSTPPRP,0.225
21,RRIRHRPPRLPRPRPRPAQRPRP,0.359
22,RRIRSRPPRLPRPRPRPVLRPRP,0.0904
23,RRIRVRPPRLPRPRPRPPLSPRP,0.106
24,RRIRARPPRLPRPRPRPHMFPRP,0.0892
25,RRIRDRPPRLPRPRPRPNGSPRP,-0.0808

# From the supplement of paper PMC9112550, “Optimization of the antimicrobial peptide Bac7 by deep mutational scanning” (BMC Biology, 2022)
